In US20230272117A1 (published 2023):

What was measured:
Assay in all cases: FACS cell binding
C1.861.hu51 = biological target: C1.861.hu51
C1.831.hu31 = biological target: C1.831.hu31
C1.861.hu31 = biological target: C1.861.hu31
C1.844.hu41 = biological target: C1.844.hu41
C1.844.hu31 = biological target: C1.844.hu31

Binder | Kd (C1.861.hu51) [nM] | Kd (C1.831.hu31) [nM] | Kd (C1.861.hu31) [nM] | Kd (C1.844.hu41) [nM] | Kd (C1.844.hu31) [nM]
C6.cC1 (other) MALRGFCSADGSDPLWDWNVTWYTSNPDFTKCFQNTVLVWVPCFYLWACFPFYFLYLSRHDRGYIQMTLLNKTKTALGFLLWIVCWADLFYSFWERSRGIFLAPVFLVSPTLLGITMLLATFLIQLERRKGVQSSGIMLTFWLVALLCALAILRSKIMTALKEDVQVDLFRDMTFYVYFSLVLIQLVLSCFSDRSPLFSETIHDPNPCPESSASFLSRITFWWITGLIVRGYRQPLEGSDLWSLNKEDTSEQVVPVLVKNWKKECAKTRKQPVKVVYSSKDPAQPKDSSKVDANEEVEALIVKSPQKEWNPSLFKVLYKTFGPYFLMSFFFKAIHDLMMFSGPEILKLLINFVNDTKAPDWQGYFYTALLFVAACLQTLVLHQYFHICFVSGMRIKTAVIGAVYRKALVITNAARKSSTVGEIVNLMSVDAQRFMDLATYINMIWSAPLQVILALYLLWRNLGPPILAGVAVMVLMVPVNAVMAMKTKTYQVAHMKSKDNRIKLMNEILNGIKVLKLYAWELAFKDKVLAIRQEELKVLKKSAYLAAVGTFTWVCTPFLVALCTFAVYVTIDKNNVLDAQKAFVSLALFNILRFPLNILPMVISSIVQASVSLKRLRIFLSHEELEPDSIERRPVKDGGDTNSITVRNATFTWARSDPPTLNGITFSIPEGALVAVVGQVGCGKSSLLSALLAEMDKVEGHVALKGSVAYVPQQAWIQNDSLQENILFGCQLEEPYYRSVIQACALLPDLEILPSGDRTEIGEKGVNLSGGQKQRVSLARAVYCNADIYLFDDPLSAVDAHVGKHIFENVIGPKGMLKNKTRILVTHSMSYLPQVDVIIVMSGGKISEMGSYQELLARDGAFAEFLRTYASAEQEQDPEDNGVTGVSGPGKEAKQMENGMLVTDSAGKQLQRQLSSSSSYSGDVSRQHNSTAELQKDGAKKEETWKLMEADKAQTGQVKLSVYWDYMKAIGLFISFLSIFLFICNHVAALASNYWLSLWTDDPIVNGTQEHTKVRLSVYGALGISQGIAVFGYSMAVSIGGILASRCLHVDLLHSILRSPMSFFERTPSGNLVNRFSKELDTVDSMIPEVIKMFMGSLFNVIGACIVILLATPIAAIIIPPLGLIYFFVQRFYVASSRQLKRLESVSRSPVYSHFNETLLGVSVIRAFEEQERFIHQSDLKVDENQKAYYPSIVANRWLAVRLECVGNCIVLFAALFAVISRHSLSAGLVGLSVSYSLQVTTYLNWLVRMSSEMETNIVAVERLKEYSETEKEAPWQIQETAPPSNWPQVGRVEFRNYCLRYREDLDFVLRHINVTINGGEKVGIVGRTGAGKSSLTLGLFRINESAEGEIIIDGINIARIGLHDLRFKITIIPQDPVLFSGSLRMNLDPFSQYSDEEVWTSLELAHLKGFVSALPDKLDHECAEGGENLSVGQRQLVCLARALLRKTKILVLDEATAAVDLETDDLIQSTIRTQFEDCTVLTIAHRLNTIMDYTRVIVLDKGEIQEYGAPSDLLQQRGLFYNMARDAGLV | 125 | 1070 | 110 | 107 | 253
C6.hC1 (other) MALRGFCSADGSDPLWDWNVTWNTSNPDFTKCFQNTVLVWVPCFYLWACFPFYFLYLSRHDRGYIQMTPLNKTKTALGFLLWIVCWADLFYSFWERSRGIFLAPVFLVSPTLLGITMLLATFLIQLERRKGVQSSGIMLTFWLVALVCALAILRSKIMTALKEDAQVDLFRDITFYVYFSLLLIQLVLSCFSDRSPLFSETIHDPNPCPESSASFLSRITFWWITGLIVRGYRQPLEGSDLWSLNKEDTSEQVVPVLVKNWKKECAKTRKQPVKVVYSSKDPAQPKESSKVDANEEVEALIVKSPQKEWNPSLFKVLYKTFGPYFLMSFFFKAIHDLMMFSGPQILKLLIKFVNDTKAPDWQGYFYTVLLFVTACLQTLVLHQYFHICFVSGMRIKTAVIGAVYRKALVITNSARKSSTVGEIVNLMSVDAQRFMDLATYINMIWSAPLQVILALYLLWLNLGPSVLAGVAVMVLMVPVNAVMAMKTKTYQVAHMKSKDNRIKLMNEILNGIKVLKLYAWELAFKDKVLAIRQEELKVLKKSAYLSAVGTFTWVCTPFLVALCTFAVYVTIDENNILDAQTAFVSLALFNILRFPLNILPMVISSIVQASVSLKRLRIFLSHEELEPDSIERRPVKDGGGTNSITVRNATFTWARSDPPTLNGITFSIPEGALVAVVGQVGCGKSSLLSALLAEMDKVEGHVAIKGSVAYVPQQAWIQNDSLRENILFGCQLEEPYYRSVIQACALLPDLEILPSGDRTEIGEKGVNLSGGQKQRVSLARAVYSNADIYLFDDPLSAVDAHVGKHIFENVIGPKGMLKNKTRILVTHSMSYLPQVDVIIVMSGGKISEMGSYQELLARDGAFAEFLRTYASTEQEQDAEENGVTGVSGPGKEAKQMENGMLVTDSAGKQLQRQLSSSSSYSGDISRHHNSTAELQKAEAKKEETWKLMEADKAQTGQVKLSVYWDYMKAIGLFISFLSIFLFMCNHVSALASNYWLSLWTDDPIVNGTQEHTKVRLSVYGALGISQGIAVFGYSMAVSIGGILASRCLHVDLLHSILRSPMSFFERTPSGNLVNRFSKELDTVDSMIPEVIKMFMGSLFNVIGACIVILLATPIAAIIIPPLGLIYFFVQRFYVASSRQLKRLESVSRSPVYSHFNETLLGVSVIRAFEEQERFIHQSDLKVDENQKAYYPSIVANRWLAVRLECVGNCIVLFAALFAVISRHSLSAGLVGLSVSYSLQVTTYLNWLVRMSSEMETNIVAVERLKEYSETEKEAPWQIQETAPPSSWPQVGRVEFRNYCLRYREDLDFVLRHINVTINGGEKVGIVGRTGAGKSSLTLGLFRINESAEGEIIIDGINIAKIGLHDLRFKITIIPQDPVLFSGSLRMNLDPFSQYSDEEVWTSLELAHLKDFVSALPDKLDHECAEGGENLSVGQRQLVCLARALLRKTKILVLDEATAAVDLETDDLIQSTIRTQFEDCTVLTIAHRLNTIMDYTRVIVLDKGEIQEYGAPSDLLQQRGLFYSMAKDAGLV | – | – | – | 94 | 518
